Measured values: PMC10663500, “High-throughput analysis system of interaction kinetics for data-driven antibody design” (Scientific Reports, 2023)
Changes are numbered by the printed parent chain.

B1: toripalimab Fab H.Y32A (Fab, V domains shown)
VH: QGQLVQSGAEVKKPGASVKVSCKASGYTFTDAEMHWVRQAPIHGLEWIGVIESETGGTAYNQKFKGRVTITADKSTSTAYMELSSLRSEDTAVYYCAREGITTVATTYYWYFDVWGQGTTVTVSS
VL: DVVMTQSPLSLPVTLGQPASISCRSSQSIVHSNGNTYLEWYLQKPGQSPQLLIYKVSNRFSGVPDRFSGSGSGTDFTLKISRVEAEDVGVYYCFQGSHVPLTFGQGTKLEIK
notes: heavy chain of Sm3 with this change; numbers count from the chain's first residue; as the light chain of Sm3; source: Brevibacillus, culture supernatant (ammonium sulfate precipitate); not shown: 6xHis, C-terminal, kept; 6xHN, C-terminal, kept
B2: toripalimab Fab H.V104A (Fab, V domains shown)
VH: B1 VH with A32Y, V104A
VL: B1 VL
notes: as for B1
B3: toripalimab Fab H.F64Y (Fab, V domains shown)
VH: B1 VH with A32Y, F64Y
VL: B1 VL
notes: as for B1
B4: toripalimab Fab H.V104Y (Fab, V domains shown)
VH: B1 VH with A32Y, V104Y
VL: B1 VL
notes: as for B1
B5: toripalimab Fab H.M34A (Fab, V domains shown)
VH: B1 VH with A32Y, M34A
VL: B1 VL
notes: as for B1
B6: toripalimab Fab H.G66Y (Fab, V domains shown)
VH: B1 VH with A32Y, G66Y
VL: B1 VL
notes: as for B1
B7: toripalimab Fab H.G100A (Fab, V domains shown)
VH: B1 VH with A32Y, G100A
VL: B1 VL
notes: as for B1
B8: toripalimab Fab H.K65A (Fab, V domains shown)
VH: B1 VH with A32Y, K65A
VL: B1 VL
notes: as for B1
B9: toripalimab Fab H.E33A (Fab, V domains shown)
VH: B1 VH with A32Y, E33A
VL: B1 VL
notes: as for B1
B10: toripalimab Fab H.F112Y (Fab, V domains shown)
VH: B1 VH with A32Y, F112Y
VL: B1 VL
notes: as for B1
B11: toripalimab Fab H.A105Y (Fab, V domains shown)
VH: B1 VH with A32Y, A105Y
VL: B1 VL
notes: as for B1
B12: toripalimab Fab H.F64A (Fab, V domains shown)
VH: B1 VH with A32Y, F64A
VL: B1 VL
notes: as for B1
B13: toripalimab Fab H.T106A (Fab, V domains shown)
VH: B1 VH with A32Y, T106A
VL: B1 VL
notes: as for B1
B14: toripalimab Fab H.G66A (Fab, V domains shown)
VH: B1 VH with A32Y, G66A
VL: B1 VL
notes: as for B1
B15: toripalimab Fab H.K65Y (Fab, V domains shown)
VH: B1 VH with A32Y, K65Y
VL: B1 VL
notes: as for B1
B16: toripalimab Fab H.T107Y (Fab, V domains shown)
VH: B1 VH with A32Y, T107Y
VL: B1 VL
notes: as for B1
B17: toripalimab Fab H.T107A (Fab, V domains shown)
VH: B1 VH with A32Y, T107A
VL: B1 VL
notes: as for B1
B18: toripalimab Fab H.W110Y (Fab, V domains shown)
VH: B1 VH with A32Y, W110Y
VL: B1 VL
notes: as for B1
B19: toripalimab Fab H.T106Y (Fab, V domains shown)
VH: B1 VH with A32Y, T106Y
VL: B1 VL
notes: as for B1
B20: toripalimab Fab H.K63Y (Fab, V domains shown)
VH: B1 VH with A32Y, K63Y
VL: B1 VL
notes: as for B1
B21: toripalimab Fab H.Y109A (Fab, V domains shown)
VH: B1 VH with A32Y, Y109A
VL: B1 VL
notes: as for B1

Molecular target: T1, mouse programmed cell death protein 1 Fc fusion protein (mPD-1-Fc), mPD-1 C60S (aa 25-167) (Mus musculus, UniProt Q02242, stabilised)
T1 construct: not cleaved; source: Expi293F, purified (Protein A, SEC; dimeric fraction); not shown: Fc (human), C-terminal, kept
Test: SPR; Carterra LSA; Fab from the ammonium sulfate precipitate of the culture supernatant immobilised on a NiHC200M chip; hPD-1 (1-1024 nM) or mPD-1-Fc (4-1024 nM) as analyte, fourfold dilution series, no regeneration; HBS-EP pH 7.4, 25 °C; medians over the spots of a construct, KD = koff/kon
Settings: one partner purified
Summary of the method: (§1)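 Fabs, ammonium sulfate-precipitated from Brevibacillus supernatants and redissolved in HBS-EP, were captured in duplicate on a NiHC200M chip on a Carterra LSA at 25 °C. Fourfold series of human PD-1 (1–1024 nM) or mouse PD-1-Fc (4–1024 nM) were run without regeneration, with association for 10 min and dissociation for 5 min. Rates were fitted with the kdka model, choosing the better of slow- or fast-dissociation settings, and unconfirmed binders were given kon 10^3 […] and koff 10^−2 s^−1. The dissociation constant KD is koff/kon based on per-construct medians.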

Row | Binder | Kd | koff | kon
1 | B1 | 1310 nM | 0.0613 s⁻¹ | 46900 M⁻¹ s⁻¹
2 | B2 | 81.5 nM | 0.00354 s⁻¹ | 43400 M⁻¹ s⁻¹
3 | B3 | 36.3 nM | 0.00224 s⁻¹ | 61600 M⁻¹ s⁻¹
4 | B4 | 96.2 nM | 0.00366 s⁻¹ | 38000 M⁻¹ s⁻¹
5 | B5 | 153 nM | 0.0068 s⁻¹ | 44300 M⁻¹ s⁻¹
6 | B6 | 393 nM | 0.0111 s⁻¹ | 28100 M⁻¹ s⁻¹
7 | B7 | 464 nM | 0.0353 s⁻¹ | 76100 M⁻¹ s⁻¹
8 | B8 | 257 nM | 0.00911 s⁻¹ | 35400 M⁻¹ s⁻¹
9 | B9 | 103 nM | 0.00372 s⁻¹ | 36200 M⁻¹ s⁻¹
10 | B10 | 59.7 nM | 0.00308 s⁻¹ | 51700 M⁻¹ s⁻¹
11 | B11 | 95.5 nM | 0.00349 s⁻¹ | 36500 M⁻¹ s⁻¹
12 | B12 | 59.7 nM | 0.00193 s⁻¹ | 32400 M⁻¹ s⁻¹
13 | B13 | 107 nM | 0.00423 s⁻¹ | 39700 M⁻¹ s⁻¹
14 | B14 | 223 nM | 0.00674 s⁻¹ | 30200 M⁻¹ s⁻¹
15 | B15 | 299 nM | 0.012 s⁻¹ | 40300 M⁻¹ s⁻¹
16 | B16 | 137 nM | 0.00432 s⁻¹ | 31600 M⁻¹ s⁻¹
17 | B17 | 232 nM | 0.00703 s⁻¹ | 30300 M⁻¹ s⁻¹
18 | B18 | 166 nM | 0.00571 s⁻¹ | 34500 M⁻¹ s⁻¹
19 | B19 | 140 nM | 0.00601 s⁻¹ | 43000 M⁻¹ s⁻¹
20 | B20 | 75.7 nM | 0.00458 s⁻¹ | 60400 M⁻¹ s⁻¹
21 | B21 | 49.7 nM | 0.00179 s⁻¹ | 36000 M⁻¹ s⁻¹

Molecular target: T2, human programmed cell death protein 1 (hPD-1) C93S (aa 24-167) (Homo sapiens, UniProt Q15116, C93S)
T2 construct: made as a fusion with a TEV site and human Fc; the Fc was cut off with TEV protease; source: Expi293F, purified (Protein A, TEV cleavage of Fc, SEC; monomer fractions); not shown: Fc (human), C-terminal, cleaved
Test: as above
Settings: one partner purified
Summary of the method: as §1

T2 sequence (Q15116 24-167 C93S): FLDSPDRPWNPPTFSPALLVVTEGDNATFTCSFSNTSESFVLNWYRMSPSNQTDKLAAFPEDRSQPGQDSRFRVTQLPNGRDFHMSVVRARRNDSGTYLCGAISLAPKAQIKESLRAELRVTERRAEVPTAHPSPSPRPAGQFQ

Row | Binder | Kd | koff | kon
22 | B1 | 4.68 nM | 7.41e-05 s⁻¹ | 15800 M⁻¹ s⁻¹
23 | B2 | 4.51 nM | 8.98e-05 s⁻¹ | 19900 M⁻¹ s⁻¹
24 | B3 | 1.17 nM | 3.98e-05 s⁻¹ | 34200 M⁻¹ s⁻¹
25 | B4 | 1.17 nM | 1.81e-05 s⁻¹ | 15500 M⁻¹ s⁻¹
26 | B5 | 0.968 nM | 3.28e-05 s⁻¹ | 33900 M⁻¹ s⁻¹
27 | B6 | < 0.85 nM | < 1e-05 s⁻¹ | 11800 M⁻¹ s⁻¹
28 | B7 | 0.593 nM | 1.42e-05 s⁻¹ | 23900 M⁻¹ s⁻¹
29 | B8 | < 1.5 nM | < 1e-05 s⁻¹ | 6670 M⁻¹ s⁻¹
30 | B9 | 1.37 nM | 1.31e-05 s⁻¹ | 9540 M⁻¹ s⁻¹
31 | B10 | < 0.731 nM | < 1e-05 s⁻¹ | 13700 M⁻¹ s⁻¹
32 | B11 | < 0.492 nM | < 1e-05 s⁻¹ | 20300 M⁻¹ s⁻¹
33 | B12 | < 1.4 nM | < 1e-05 s⁻¹ | 7170 M⁻¹ s⁻¹
34 | B13 | 0.743 nM | 1.56e-05 s⁻¹ | 21000 M⁻¹ s⁻¹
35 | B14 | < 1.56 nM | < 1e-05 s⁻¹ | 6410 M⁻¹ s⁻¹
36 | B15 | 1.14 nM | 1.86e-05 s⁻¹ | 16300 M⁻¹ s⁻¹
37 | B16 | < 0.315 nM | < 1e-05 s⁻¹ | 31700 M⁻¹ s⁻¹
38 | B17 | < 1.53 nM | < 1e-05 s⁻¹ | 6520 M⁻¹ s⁻¹
39 | B18 | < 1.51 nM | < 1e-05 s⁻¹ | 6610 M⁻¹ s⁻¹
40 | B19 | 0.833 nM | 1.75e-05 s⁻¹ | 21000 M⁻¹ s⁻¹
41 | B20 | < 0.226 nM | < 1e-05 s⁻¹ | 44300 M⁻¹ s⁻¹
42 | B21 | 0.608 nM | 1.41e-05 s⁻¹ | 23200 M⁻¹ s⁻¹
